Reference: US20250025478

What was measured:
GST-SPATA2 = GST-SPATA2 (UniProt Q9UM82)
6×His-CYLD = 6×His-CYLD (UniProt Q9NQC7)
Sequence of 6×His-CYLD (Q9NQC7 whole entry): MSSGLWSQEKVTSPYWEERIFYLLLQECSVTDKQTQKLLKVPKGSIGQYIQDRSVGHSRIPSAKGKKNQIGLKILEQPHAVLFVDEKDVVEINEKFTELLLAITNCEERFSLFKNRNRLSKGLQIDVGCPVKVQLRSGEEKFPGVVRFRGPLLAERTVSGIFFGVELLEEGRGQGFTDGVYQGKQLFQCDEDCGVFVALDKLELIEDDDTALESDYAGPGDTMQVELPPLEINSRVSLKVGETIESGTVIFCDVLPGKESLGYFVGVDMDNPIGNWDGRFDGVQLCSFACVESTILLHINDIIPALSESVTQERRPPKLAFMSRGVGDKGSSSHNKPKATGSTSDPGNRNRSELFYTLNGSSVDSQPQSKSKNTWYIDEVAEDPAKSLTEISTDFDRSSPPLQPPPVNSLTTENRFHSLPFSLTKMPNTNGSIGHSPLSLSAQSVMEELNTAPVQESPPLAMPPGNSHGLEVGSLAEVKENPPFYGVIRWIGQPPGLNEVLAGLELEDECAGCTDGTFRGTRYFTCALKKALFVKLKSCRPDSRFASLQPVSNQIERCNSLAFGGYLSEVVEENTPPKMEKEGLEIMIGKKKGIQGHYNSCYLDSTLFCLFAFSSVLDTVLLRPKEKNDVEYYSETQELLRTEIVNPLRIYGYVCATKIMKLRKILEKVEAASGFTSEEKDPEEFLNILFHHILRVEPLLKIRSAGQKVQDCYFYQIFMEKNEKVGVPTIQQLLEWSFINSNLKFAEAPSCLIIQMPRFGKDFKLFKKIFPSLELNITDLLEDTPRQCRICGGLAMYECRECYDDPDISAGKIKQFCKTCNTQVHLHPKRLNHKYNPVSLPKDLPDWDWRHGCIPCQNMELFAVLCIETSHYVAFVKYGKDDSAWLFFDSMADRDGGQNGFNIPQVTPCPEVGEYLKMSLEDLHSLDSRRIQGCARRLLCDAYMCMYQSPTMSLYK

Sequence of GST-SPATA2 (Q9UM82 whole entry): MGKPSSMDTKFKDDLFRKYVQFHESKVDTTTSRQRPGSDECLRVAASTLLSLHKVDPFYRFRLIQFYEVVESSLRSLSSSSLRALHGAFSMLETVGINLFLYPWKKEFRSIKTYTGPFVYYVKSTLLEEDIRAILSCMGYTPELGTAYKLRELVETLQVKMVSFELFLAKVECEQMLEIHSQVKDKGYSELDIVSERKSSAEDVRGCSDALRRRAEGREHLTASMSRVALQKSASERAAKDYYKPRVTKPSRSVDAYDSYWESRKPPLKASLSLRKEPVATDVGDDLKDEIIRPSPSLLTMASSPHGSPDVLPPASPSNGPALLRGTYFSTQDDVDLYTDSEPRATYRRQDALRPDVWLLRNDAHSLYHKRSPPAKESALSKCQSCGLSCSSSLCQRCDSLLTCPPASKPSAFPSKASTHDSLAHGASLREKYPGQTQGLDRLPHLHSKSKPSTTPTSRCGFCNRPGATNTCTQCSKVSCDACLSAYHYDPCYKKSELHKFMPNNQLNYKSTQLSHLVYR

| Substance | in vitro ubiquitylation assay (UBE1, UBE2L3, HA-Ub) (GST-SPATA2) | in vitro ubiquitylation assay (UBE1, UBE2L3, HA-Ub) (6×His-CYLD) | in vitro dephosphorylation of ABL1-phosphorylated RNF213 (3×-FLAG-RNF213) |
| --- | --- | --- | --- |
| 3×-FLAG-RNF213 | SPATA2 and CYLD, when tested alone or in equimolar concentrations, were ubiquitinated by 3×FLAG-RNF213 | SPATA2 and CYLD, when tested alone or in equimolar concentrations, were ubiquitinated by 3×FLAG-RNF213 | – |
| 3×-FLAG-RNF213^H4014A | both proteins showed increased ubiquitylation when the RING mutant RNF213^H4014A (RING-dead) was assayed (compared with WT RNF213) | both proteins showed increased ubiquitylation when the RING mutant RNF213^H4014A (RING-dead) was assayed (compared with WT RNF213) | – |
| 3×-FLAG-RNF213^H4014A/H4509A | RING/RZ-dead was unable to ubiquitylate CYLD/SPATA2 | RING/RZ-dead was unable to ubiquitylate CYLD/SPATA2 | – |
| 3×-FLAG-RNF213^H4509A | There was no significant ubiquitylation of CYLD or SPATA2 when an RZ mutant ("RZ-dead") form of RNF213 (RNF213^H4509A) was tested | There was no significant ubiquitylation of CYLD or SPATA2 when an RZ mutant ("RZ-dead") form of RNF213 (RNF213^H4509A) was tested | – |
| recombinant GST-PTP1B | – | – | GST-PTP1B dephosphorylated ABL1-phosphorylated RNF213 |
